Assay results as given in the supplement of paper PMC10126150.
± gives the standard deviation of the averaged measurements.

System: ATP
Assay: switch fluorescence ratio, 500 uM ATP over buffer (Cy3 cluster intensity, sum of 5 cycles each) (fold (ratio)); higher = stronger signal-on switching upon ATP binding; sequences stand for … in TCGTCGGCAGCGTCAGATGTGTATAAGAGACAGTTTTTTTTTTTTTTTTTTTTTTTTT…TC
Conditions: aptamer strand: ATP DNA aptamer (quencher-CACCTGGGGGAGTATTGCGGAGGAAGG + anchor), 100 nM annealed; ATP concentration: 500 uM
How it was run: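 Clusters carrying Cy3-labelled switching strands on a modified Illumina MiSeq flow-cell were annealed to 100 nM quencher-labelled ATP aptamer and imaged in selection buffer. They were imaged again after 15 min with 500 uM ATP at 22 °C, over five buffer/ATP cycles with NaOH stripping and re-annealing in between. For each cluster, the fluorescence ratio is the summed Cy3 intensity of the target cycles divided by that of the buffer cycles, averaged per switch-domain sequence. Clusters outside 100-1000 RFU were left out.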
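Further: ATP exposure 15 min at 22 °C before imaging.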

Sequence	switch fluorescence ratio
ATGGGCTGGG	0.997 ± 0.035
GTTAATATAA	0.9971 ± 0.003
GCTGTAGCGG	1.02 ± 0.031
CCTATACGGG	1.03 ± 0.049
GCGGGATGCA	0.993 ± 0.033
TTTGTTAAGT	1.01 ± 0.05
GGGTATTCTG	0.98 ± 0.053
TCCCAAAATG	1.01 ± 0.039
GGCAACGCGT	1 ± 0.025
ATTGGGTATT	0.9749 ± 0.007
CATGTGTTGT	0.987 ± 0.014
TGAGATAGCT	0.998 ± 0.033
GGGTGGAGTT	0.9672 ± 0.0046
GTCCTTTTTT	0.97 ± 0.039
CGCGCCGTTG	1 ± 0.011
CTGTTCTGTG	0.951 ± 0.033
GGGGCGTATG	0.993 ± 0.02
TTTTTTGCTG	0.985 ± 0.026
AGCACGCACA	1.77 ± 0.06
TTTCGTGGGA	0.999 ± 0.04
TTCTTTTATG	1.02 ± 0.021
AGGGGGAATG	1 ± 0.044
GAGTTGGGGA	1 ± 0.036
TAAGGAGGAT	1 ± 0.017
CCAGGGGAAG	0.996 ± 0.017

Sequence	switch fluorescence ratio
TACGTAGGCA	1.073 ± 0.0077
GGCCGGGGGG	1.02 ± 0.058
AATAAAATGG	0.998 ± 0.028
GGGGACAGTT	1.02 ± 0.017
TTGTTTTATC	1 ± 0.021
AGGGTTGCAT	0.9863 ± 0.0025
GGGGCCACGC	1.01 ± 0.034
ACGAATGTTG	0.9918 ± 0.0029
GAACGGAGCT	1.09 ± 0.052
TTAGGATAAT	1.031 ± 0.0072
CAGGAGGGAG	1.01 ± 0.011
GGCTTAGTTG	0.982 ± 0.0024
CATACAGATC	1.06 ± 0.031
ATAGCTGGAA	0.9678 ± 0.0011
TGTGGGTAAA	1.01 ± 0.042
GTTTTCGGGG	1.04 ± 0.029
CTGGTTGGGG	1 ± 0.017
TTCTGATGGT	0.99 ± 0.021
TCTCTATAGG	0.9834 ± 0.0036
AAATGGCATT	1 ± 0.033
TTTTTTGGGA	1.01 ± 0.019
CAGCGGGCGT	0.963 ± 0.01
CGGTTGGGTA	0.977 ± 0.014
ATGACGAAGC	1.57 ± 0.13
TGGACTACGC	1.06 ± 0.012

Sequence	switch fluorescence ratio
AGTAGTTGGC	1.01 ± 0.12
TATAGAGTAA	1.02 ± 0.034
GCGTGGGCGA	1.03 ± 0.045
CATTATTGTT	0.999 ± 0.033
TCCAGGTTAG	1.17 ± 0.03
CTTCTAGGGG	1.05 ± 0.011
AGGGGCGGCG	1.01 ± 0.061
AGAGTGTTTC	0.943 ± 0.038
TTTATGGGGG	0.999 ± 0.034
GTTGTGTTTG	0.998 ± 0.022
AGAGATGTGG	0.958 ± 0.036
GGTATAAAGA	0.984 ± 0.049
TGTGATTTTT	1.01 ± 0.028
ATAAGGCTCG	0.966 ± 0.011
CGGGGCAGGG	1.01 ± 0.062
TGGGGCGAGG	1.01 ± 0.014
TATGTCATTT	0.957 ± 0.011
CGTAATGGGG	1.022 ± 0.01
AAGAAGGAGG	1.01 ± 0.029
GTGGAACCTT	1.24 ± 0.2
GAGGCTAGTT	0.9936 ± 0.0047
TTGAAGGGGC	0.997 ± 0.055
TTTTGTTAGC	1.01 ± 0.03
CTTATATGAG	1.001 ± 0.0025
GTTGTGTCTG	0.979 ± 0.013

Sequence	switch fluorescence ratio
GGCATACCGT	0.997 ± 0.0052
TAAGGGAGGG	1.05 ± 0.029
TTAAGGGGTT	1.03 ± 0.044
CTTATAATTT	0.9947 ± 0.0082
ATAGGGTTTC	0.99 ± 0.01
GGGAGGAAAG	0.991 ± 0.017
TATTTAATCA	1.008 ± 0.0097
GGTAGGTGTC	0.985 ± 0.031
AGAGGGCATT	0.967 ± 0.045
TTTTTAGTTA	0.981 ± 0.01
TAAGTAGGGT	1.01 ± 0.023
GAAAAATTGG	1.03 ± 0.03
ATGTGTTACG	1.05 ± 0.012
CGGGGGAAGT	0.981 ± 0.068
TTTTTCAATG	0.979 ± 0.042
GGCTTTTTTC	0.993 ± 0.021
CGTTTAGGTT	1 ± 0.017
CGTATTTTTT	1.01 ± 0.032
TTTACTCGCA	1.3 ± 0.12
GAGACGTTTT	0.97 ± 0.015
TGTAGGTGTT	0.999 ± 0.077
ACTCCCGAAT	1.865 ± 0.0096
TGACGGTGGG	0.962 ± 0.023
GGGGTATGGA	0.989 ± 0.023
TGACATCGGG	1.01 ± 0.033
